Reference: patent publication US5843460

Biological target: H. pylori urease (UreA and UreB subunits) expressed in E. coli from the urease gene cluster of pILL763 or pILL753 (Helicobacter pylori)

Substance “H. pylori HspA heat shock protein (GroES-like)” has a urease activity (Berthelot reaction) of E. coli co-expressing the urease gene cluster and HspA plus HspB of 3 fold.
With “H. pylori HspB heat shock protein (GroEL-like)” the urease activity (Berthelot reaction) of E. coli co-expressing the urease gene cluster and HspA plus HspB was 3 fold.
